Measured values from ChEMBL document CHEMBL2074244, “Loss of ATP-dependent transport activity in pseudoxanthoma elasticum-associated mutants of human ABCC6 (MRP6)” (J Biol Chem, 2002).

Experiments:
[1] = substrate: CCCCC/C=C\C\C=C/C=C/C=C/[C@@H](SC[C@@H](NC(=O)CC[C@H](N)C(=O)O)C(=O)NCC(=O)O)[C@@H](O)CCCC(=O)O; test: (§1) TP_TRANSPORTER: uptake in membrane vesicles from MRP6-expressing Sf9 cells; format: functional, cell membranes, Membrane vesicle
[2] = substrate: NC(CCC(=O)NC(CNCC(=O)O)CSCCN1C(=O)C=CC1=O)C(=O)O; test: as §1; format: functional, cell membranes, Membrane vesicle

B1: ATP-binding cassette sub-family C member 6 (Homo sapiens) (protein)
chain: MAAPAEPCAGQGVWNQTEPEPAATSLLSLCFLRTAGVWVPPMYLWVLGPIYLLFIHHHGRGYLRMSPLFKAKMVLGFALIVLCTSSVAVALWKIQQGTPEAPEFLIHPTVWLTTMSFAVFLIHTERKKGVQSSGVLFGYWLLCFVLPATNAAQQASGAGFQSDPVRHLSTYLCLSLVVAQFVLSCLADQPPFFPEDPQQSNPCPETGAAFPSKATFWWVSGLVWRGYRRPLRPKDLWSLGRENSSEELVSRLEKEWMRNRSAARRHNKAIAFKRKGGSGMKAPETEPFLRQEGSQWRPLLKAIWQVFHSTFLLGTLSLIISDVFRFTVPKLLSLFLEFIGDPKPPAWKGYLLAVLMFLSACLQTLFEQQNMYRLKVLQMRLRSAITGLVYRKVLALSSGSRKASAVGDVVNLVSVDVQRLTESVLYLNGLWLPLVWIVVCFVYLWQLLGPSALTAIAVFLSLLPLNFFISKKRNHHQEEQMRQKDSRARLTSSILRNSKTIKFHGWEGAFLDRVLGIRGQELGALRTSGLLFSVSLVSFQVSTFLVALVVFAVHTLVAENAMNAEKAFVTLTVLNILNKAQAFLPFSIHSLVQARVSFDRLVTFLCLEEVDPGVVDSSSSGSAAGKDCITIHSATFAWSQESPPCLHRINLTVPQGCLLAVVGPVGAGKSSLLSALLGELSKVEGFVSIEGAVAYVPQEAWVQNTSVVENVCFGQELDPPWLERVLEACALQPDVDSFPEGIHTSIGEQGMNLSGGQKQRLSLARAVYRKAAVYLLDDPLAALDAHVGQHVFNQVIGPGGLLQGTTRILVTHALHILPQADWIIVLANGAIAEMGSYQELLQRKGALMCLLDQARQPGDRGEGETEPGTSTKDPRGTSAGRRPELRRERSIKSVPEKDRTTSEAQTEVPLDDPDRAGWPAGKDSIQYGRVKATVHLAYLRAVGTPLCLYALFLFLCQQVASFCRGYWLSLWADDPAVGGQQTQAALRGGIFGLLGCLQAIGLFASMAAVLLGGARASRLLFQRLLWDVVRSPISFFERTPIGHLLNRFSKETDTVDVDIPDKLRSLLMYAFGLLEVSLVVAVATPLATVAILPLFLLYAGFQSLYVVSSCQLRRLESASYSSVCSHMAETFQGSTVVRAFRTQAPFVAQNNARVDESQRISFPRLVADRWLAANVELLGNGLVFAAATCAVLSKAHLSAGLVGFSVSAALQVTQTLQWVVRNWTDLENSIVSVERMQDYAWTPKEAPWRLPTCAAQPPWPQGGQIEFRDFGLRYRPELPLAVQGVSFKIHAGEKVGIVGRTGAGKSSLASGLLRLQEAAEGGIWIDGVPIAHVGLHTLRSRISIIPQDPILFPGSLRMNLDLLQEHSDEAIWAALETVQLKALVASLPGQLQYKCADRGEDLSVGQKQLLCLARALLRKTQILILDEATAAVDPGTELQMQAMLGSWFAQCTVLLIAHRLRSVMDCARVLVMDKGQVAESGSPAQLLAQKGLFYRLAQESGLV
Km [1]: 0.6 µM
Km [2]: 282 µM
